Assay results from patent US20230296621A1.
Where “and” joins values, the source holds several entries; their conditions need not be identical. Identical values can stand only once.

Key:
[1] = biological target: S sensors L15 + S25: S(aa 328-533)-15aa-LgBiT and S(aa 328-533)-25aa-SmBiT (SARS-CoV-2)
[2] = biological target: N sensors LC2 + SC2: N(aa 44-257)-LgBiT and N(aa 44-257)-SmBiT (SARS-CoV-2); experiment: spLUC, antibody dilution 100000
[3] = biological target: N sensors LN + SN: LgBiT-10aa-N(aa 44-257) and SmBiT-10aa-N(aa 44-257) (SARS-CoV-2); experiment: spLUC, antibody dilution 100000
[4] = biological target: N sensors LC + SC: N(aa 44-180)-10aa-LgBiT and N(aa 44-180)-10aa-SmBiT (SARS-CoV-2); experiment: spLUC, antibody dilution 100000
[5] = biological target: N sensors LC2 + SC2: N(aa 44-257)-LgBiT and N(aa 44-257)-SmBiT (SARS-CoV-2); experiment: spLUC, antibody dilution 10000
[6] = biological target: N sensors LC + SC: N(aa 44-180)-10aa-LgBiT and N(aa 44-180)-10aa-SmBiT (SARS-CoV-2); experiment: spLUC, antibody dilution 10000
[7] = biological target: N sensors LC2 + SC2: N(aa 44-257)-LgBiT and N(aa 44-257)-SmBiT (SARS-CoV-2); experiment: spLUC, antibody dilution 1000
[8] = biological target: N sensors LN + SN: LgBiT-10aa-N(aa 44-257) and SmBiT-10aa-N(aa 44-257) (SARS-CoV-2); experiment: spLUC, antibody dilution 1000
[9] = biological target: N sensors LC + SC: N(aa 44-180)-10aa-LgBiT and N(aa 44-180)-10aa-SmBiT (SARS-CoV-2); experiment: spLUC, antibody dilution 1000
[10] = biological target: N sensors LC2 + SC2: N(aa 44-257)-LgBiT and N(aa 44-257)-SmBiT (SARS-CoV-2); experiment: spLUC, antibody dilution 100
[11] = biological target: N sensors LN + SN: LgBiT-10aa-N(aa 44-257) and SmBiT-10aa-N(aa 44-257) (SARS-CoV-2); experiment: spLUC, antibody dilution 100
[12] = biological target: N sensors LC + SC: N(aa 44-180)-10aa-LgBiT and N(aa 44-180)-10aa-SmBiT (SARS-CoV-2); experiment: spLUC, antibody dilution 100
[13] = biological target: N sensors LC2 + SC2: N(aa 44-257)-LgBiT and N(aa 44-257)-SmBiT (SARS-CoV-2); experiment: spLUC, antibody dilution 1000000
[14] = biological target: N sensors LN + SN: LgBiT-10aa-N(aa 44-257) and SmBiT-10aa-N(aa 44-257) (SARS-CoV-2); experiment: spLUC, antibody dilution 1000000
[15] = biological target: N sensors LC + SC: N(aa 44-180)-10aa-LgBiT and N(aa 44-180)-10aa-SmBiT (SARS-CoV-2); experiment: spLUC, antibody dilution 1000000

Substance	percent of signal competed [1] [%]	luminescence signal [2]	luminescence signal [3]	luminescence signal [4]	luminescence signal [5]	luminescence signal [6]	luminescence signal [7]	luminescence signal [8]	luminescence signal [9]	luminescence signal [10]	luminescence signal [11]	luminescence signal [12]	luminescence signal [13]	luminescence signal [14]	luminescence signal [15]
C105 Fab	90														
rabbit polyclonal anti-N protein antibody (Sino Biological, Cat#: 40588-T62-50)		475 and 327	146 and 145	811 and 592	563 and 505	1030 and 694	2910 and 2790	677 and 684	4000 and 3560	9060 and 9420	1970 and 2200	10900 and 10200	332 and 281	138 and 104	598 and 600
